Reference: patent US20250034621, “LOCKED APTAMER HAIRPIN INTEGRATED HYBRIDIZATION CHAIN REACTION FOR RAPID, INSTRUMENT-FREE BIOMARKER DETECTION” (The Texas A&m University System, published 2025)

Target: cardiac troponin I (cTnI) (UniProt P19429 P19429:2-210)
Test: cTnI-dependent opening of aptamer on magnetic particles, supernatant fluorescence of tagged HTG-H1 falls with cTnI; 0.5 ng/mL not distinguishable from blank; native PAGE HCR products also cTnI-dependent (p77, FIG. 6B); SERRS LOD 0.5 pg/mL in serum (p85), colorimetric hyperbranched HCR LOD 0.117 ng/mL (p104); high-salt buffer 20 mM Tris pH 7.6, 1000 mM NaCl, 5 mM KCl, 2 mM MgCl2, 1 mM CaCl2
Conditions: tags: Genscript (SERRS studies); label: biotin (on streptavidin magnetic particles)

Sequence of cardiac troponin I (cTnI) (P19429 2-210, one chain of several): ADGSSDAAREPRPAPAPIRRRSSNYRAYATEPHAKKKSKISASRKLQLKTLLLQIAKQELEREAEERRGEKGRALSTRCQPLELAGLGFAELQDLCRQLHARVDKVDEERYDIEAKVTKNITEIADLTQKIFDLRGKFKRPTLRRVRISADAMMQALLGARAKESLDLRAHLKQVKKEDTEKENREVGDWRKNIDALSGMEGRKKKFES

B1: locked Tro4 aptamer-initiator (Tro4 + A8 spacer + HCR initiator + blocker) (ssDNA)
DNA: TTTTTCGTGCAGTACGCAACCTTTCTCATGCGCTGCCCCTCTTAAAAAAAAGCAGATCCTAAGCCGCACCCAATTAAGGGGCAGCGCATGAGAAAGGTTCCGTA
Question: Does B1 bind?
Answer: Result: binds
